Assay results reported in patent US20160017049A1 (Genentech, published 2016).

T1: huGPC(aa359-470) (HSV; human)
T1 construct: Expressed on the surface of 293 cells; not shown: C-terminal glycophosphatidylinositol anchor (GPI link)
T1 chain: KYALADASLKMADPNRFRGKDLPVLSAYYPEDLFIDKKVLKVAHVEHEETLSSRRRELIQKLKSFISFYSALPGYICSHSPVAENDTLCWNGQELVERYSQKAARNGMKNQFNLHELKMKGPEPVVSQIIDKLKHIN

T2: huGPC(aa359-559) (human, UniProt P51654 359-559)
T2 construct: Expressed on the surface of 293 cells
T2 sequence: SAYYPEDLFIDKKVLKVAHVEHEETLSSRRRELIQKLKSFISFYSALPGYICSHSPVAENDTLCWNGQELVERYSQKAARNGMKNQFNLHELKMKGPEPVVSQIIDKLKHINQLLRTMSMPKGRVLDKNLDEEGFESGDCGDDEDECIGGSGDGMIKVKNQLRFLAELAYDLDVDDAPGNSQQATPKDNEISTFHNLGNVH

T3: huGPC(aa359-509) (HSV; human)
T3 construct: Expressed on the surface of 293 cells; not shown: C-terminal glycophosphatidylinositol anchor (GPI link)
T3 chain: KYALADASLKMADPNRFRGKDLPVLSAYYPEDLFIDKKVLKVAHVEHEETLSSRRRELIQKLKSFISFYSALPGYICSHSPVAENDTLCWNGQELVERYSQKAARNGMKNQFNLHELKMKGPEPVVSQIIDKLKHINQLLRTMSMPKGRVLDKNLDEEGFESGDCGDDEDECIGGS

T4: human GPC3 C-terminal fragment, amino acids 359 to 560, with GPI link (human, UniProt P51654 359-560)
T4 construct: also called huGPC(aa359-560); not shown: C-terminal glycophosphatidylinositol anchor (GPI link)
T4 sequence: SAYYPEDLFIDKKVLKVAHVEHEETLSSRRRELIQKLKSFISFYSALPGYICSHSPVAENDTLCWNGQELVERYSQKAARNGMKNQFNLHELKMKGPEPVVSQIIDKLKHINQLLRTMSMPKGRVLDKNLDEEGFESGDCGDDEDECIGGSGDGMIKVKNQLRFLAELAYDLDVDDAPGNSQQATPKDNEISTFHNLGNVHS

B1: antibody 15G1 (antibody, human IgG1, kappa, V domains shown)
VH: EVQLLETGGGLVQPGGSRGLSCEGSGFTFSGFWMSWVRQTPGKTLEWIGDINSDGSSINYAPSIKDRFTIFRDNDKSILYLQMTNVRSEDTGTYFCVTTYGDYWGQGTTLTVSS
VL: DIVMTQSQKFMSTSVGDRVSVTCKASQNVGSHVGWYQQKSGQSPKALIYSASNRYIGVPDRFTGSGSGTDFTLTISNVQSEDLAEYFCQQYHIYPYTFGGGTRLEIKR
notes: also called 15G1 thio-HC A118C
B2: antibody 7H1 (antibody, V domains shown)
VH: QVQLQQSGPELVKPGASVKISCKASGYTFTDYYINWVKQKPGQGLEWIGWIYPGSGHTECNETFKGKATLTVDTSSSTAYMQLSSLTSEDTAVYFCTRGYYAPMGYFDYWGQGTTLTVSS
VL: DIQMTQSPSSLSASLGERVSLTCRASQEISGYLSWLQQKPDGTIKRLIYAASTLDSGVPKRFSGSRSGSDYSLTISGLESEDFADYYCLQYASYPYTFGGGTKLEIK
notes: Mouse monoclonal from Balb/c mice immunised with huGPC3 ECD-Flag
B3: antibody 4G7 (antibody, V domains shown)
VH: EVQLQQSGTVLARPGASVKMSCKASGYTFTSYWVHWVKQRPGQGLEWIGAIYPGNIDASYNQKFKGKAKLTAVTSTSTAYMELSSLTNEDSAVYYCSYDYDAWFVYWGQGTLVTVSA
VL: DIQMTQSHKFMSTSVGDRVSITCKASQDVSTAVAWYQQKPGQSPTLLIYSASYRYTGVPDRFTGSGSGTDFTFTISSVQAEDLAVYYCQQHYFTPRTFGGGTKLELK
B4: antibody 4A11 (antibody, human IgG1, kappa)
heavy: not shown
light: DIVMTQSPSSMYASLGERVTITCKASQDINSYLSWFQQKPGKSPKTLIYRVNRLVDGVPSRFSGSGSGQDYSLTISSLEYEDVGIYYCLQYDEFPLTLGAGTKLELKRTVAAPSVFIFPPSDEQLKSGTASVVCLLNNFYPREAKVQWKVDNALQSGNSQESVTEQDSKDSTYSLSSTLTLSKADYEKHKVYACEVTHQGLSSPVTKSFNRGEC
notes: also called 4A11 thio-HC A118C

How the values were obtained:
huGPC(aa359-470) = biological target: T1, huGPC(aa359-470); assay: FACS on 293 cells expressing the gD-tagged fragment
Experimental: (§1) C-terminal truncation constructs of huGPC(aa359-589) were made to further refine the epitopes for antibodies 4A11 and 15G1. […] The three C-terminal truncations each comprised an HSV N-terminal signal sequence (SS) and gD sequence (SEQ ID NO: 41) and C-terminal glycophosphatidylinositol anchor (GPI link). The huGPC truncation constructs were expressed on the surface of 293 cells and antibody binding was determined by FACS. An anti-gD was used as a positive control. Vector-transfected 293 cells were used as a negative control.

huGPC(aa359-559) = biological target: T2, huGPC(aa359-559); assay: as above
Experimental: as §1

huGPC(aa359-509) = biological target: T3, huGPC(aa359-509); assay: as above
Experimental: as §1

[1] = biological target: T5, human GPC3 C-terminal truncation, amino acids 25 to 137, with GPI link (human, UniProt P51654 25-137); assay: Western blot probed with 7H1, lysate of transiently transfected cells
T5 construct: not shown: C-terminal glycophosphatidylinositol anchor (GPI link)

[2] = biological target: T6, human GPC3 C-terminal truncation, amino acids 25 to 247, with GPI link (human, UniProt P51654 25-247); assay: as above
T6 construct: not shown: C-terminal glycophosphatidylinositol anchor (GPI link)

[3] = biological target: T7, human GPC3 N-terminal fragment, amino acids 25 to 358, with GPI link (human, UniProt P51654 25-358); assay: Western blot probed with 7H1, lysate of stably transfected cells
T7 construct: not shown: C-terminal glycophosphatidylinositol anchor (GPI link)

[4] = biological target: T4, human GPC3 C-terminal fragment, amino …; assay: FACS on 293S cells expressing the C-terminal fragment of GPC3
Description: C-terminal truncation constructs of human GPC3 were made to further refine the epitopes for antibodies 7H1 and 4G7. […] The three C-terminal truncations each comprised the GPC N-terminal signal sequence (SS) and C-terminal glycophosphatidylinositol anchor (GPI link). […] See FIG. 7 (Santa Cruz Biotechnology antibody 1G12, which was raised to amino acids 511-580 of human GPC3, was used as a positive control for C-terminal fragment binding). Antibody 7H1 was reformatted as a chimeric antibody with human A118C cysteine-engineered IgG1 and Igκ constant regions (SEQ ID NOs: 42 and 43).

T6 sequence (P51654 25-247): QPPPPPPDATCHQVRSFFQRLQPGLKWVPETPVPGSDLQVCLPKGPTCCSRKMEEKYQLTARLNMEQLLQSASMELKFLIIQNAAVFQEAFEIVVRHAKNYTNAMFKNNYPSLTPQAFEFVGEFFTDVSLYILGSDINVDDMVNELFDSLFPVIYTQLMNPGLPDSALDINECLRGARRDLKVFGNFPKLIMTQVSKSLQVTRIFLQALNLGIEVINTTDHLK
T5 sequence (P51654 25-137): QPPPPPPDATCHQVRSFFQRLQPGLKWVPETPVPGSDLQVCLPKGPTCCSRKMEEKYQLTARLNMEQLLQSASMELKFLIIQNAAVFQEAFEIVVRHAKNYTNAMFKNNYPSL
T7 sequence (P51654 25-358): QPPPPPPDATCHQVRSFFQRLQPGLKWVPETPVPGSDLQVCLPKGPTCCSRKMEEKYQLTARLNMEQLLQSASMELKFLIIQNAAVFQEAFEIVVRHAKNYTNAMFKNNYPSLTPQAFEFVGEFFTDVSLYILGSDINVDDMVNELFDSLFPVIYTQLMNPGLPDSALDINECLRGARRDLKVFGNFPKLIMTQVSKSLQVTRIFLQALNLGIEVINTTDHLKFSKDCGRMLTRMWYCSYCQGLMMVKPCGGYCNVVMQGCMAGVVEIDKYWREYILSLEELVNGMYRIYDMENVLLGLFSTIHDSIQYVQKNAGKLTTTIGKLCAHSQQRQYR

| Binder | binding result (huGPC(aa359-470)) | binding result (huGPC(aa359-559)) | binding result (huGPC(aa359-509)) | binding result [1] | binding result [2] | binding result [3] | binding result [4] |
| --- | --- | --- | --- | --- | --- | --- | --- |
| B1 | binds | binds | binds | – | – | – | – |
| B2 | – | – | – | binds | binds | binds | no binding |
| B3 | – | – | – | – | – | – | no binding |
| B4 | – | binds | binds | – | – | – | – |
